Self-cleavage data for 167 variants are collected here from the RNAGym collection of RNA variant scans (doi:10.7554/elife.80360).

B1: HDV Ribozyme (parent)
chain: GGCCGGCAUGGUCCCAGCCUCCUCGCUGGCGCCGGCUGGGCAACAUUCCGAGGGGACCGUCCCCUCGGUAAUGGCGAAUGGGACCCA

The variants in this series derive from B1. Put plainly: self-cleavage, relative activity (ratio to wild type); higher = more cleavage; co-transcriptional.
As to C3U U9C, the self-cleavage was determined as 0.95.
The result for C3U U9G reads 0.942; that for C4A G39C, 0; that for C4A G39A, 0.119.
The result for C4U A42G reads 0.138; that for C4U A42C, 0.0475; that for C4G C75U, 0.0396.
The figure for C4G A70G is 0.59; for C4G U27A it is 0.222.
In the case of C4G U27C, the self-cleavage was 0.0437.
The result for C4G U27G reads 0.268; that for C4A C57A, 0.541.
The result for C4A C57U reads 0.237; that for C4U G34C, 0.151.
C4U G34U: the self-cleavage turned out to be 0.424.
The result for C4G G76A reads 0.343; that for C4G G76C, 0.494.
On to C4A C48G, for which the self-cleavage came out at 0.148.
The result for C4U G11C reads 0.
Turning to C4U G11A, the self-cleavage worked out at 0.225.
The figure for C4A G35A is 0.0733.
The result for C4A A77C reads 0.0462; that for C4G A71C, 0.192; that for C4G A71G, 0.277.
The result for C4A G54U reads 0.32; that for C4A G54C, 0.284; that for C4A G54A, 0.268.
For C4A G82C, the self-cleavage was 0.0396.
The figure for C4G G28U is 0; for C4G G28A it is 0.
The result for C4U G31A reads 0.163.
The figure for C4U G31C is 0.0339; for C4U G31U it is 0.0346.
As to C3U U72A, the self-cleavage turned out to be 0.684.
The figure for C4G G11A is 0.104; for C4G G11C it is 0; for C4A A70C it is 0.136.
The figure for C4A C26G is 0.348; for C4G G25C it is 0; for C4G G25A it is 0.0256.
The figure for C4A G10U is 0.0733; for C4G U65A it is 0.525; for C4G C19G it is 0.086.
In the case of C4A U47A, the self-cleavage was determined as 0.156.
On to C4A U47C, for which the self-cleavage amounted to 0.293.
On to C4U C32G, for which the self-cleavage was 0.
The figure for C4G U79A is 0.0536; for C4G U79C it is 0.13; for C4G U79G it is 0.
Regarding C4G C24A, the self-cleavage is 0.102.
The figure for C4G C24G is 0.0426; for C4U C86G it is 0.831.
The figure for C4U C86A is 0.875.
Take C4A U23C: the self-cleavage came to 0.0978.
The result for C4A U23A reads 0.309; that for C4U A77G, 0.578; that for C4G C33G, 0.0583.
The figure for C4G C33A is 0; for C4A C44A it is 0.148; for C4G G82U it is 0.0421.
The result for C4U A51C reads 0.723; that for C4G U60C, 0.0875; that for C4G U60G, 0.213.
As for C4G U60A, the self-cleavage is 0.332.
As for C4G A77G, the self-cleavage stood at 0.172.
The result for C4U G28A reads 0.0845; that for C4U G28U, 0.0277; that for C4U C41U, 0.567.
The figure for C4G G59C is 0.481; for C4G G81U it is 0.0554; for C4G G81C it is 0.0767.
The figure for C4G U47C is 0.346; for C4U A78G it is 0.375; for C4U A78U it is 0.155.
Turning to C3U U60C, the self-cleavage stood at 0.943.
As to C4U A71C, the self-cleavage came out at 0.499.
The figure for C4U C13U is 0.516; for C4U G25A it is 0.111; for C4U C49G it is 0.604.
The result for C4U C49A reads 0.332; that for C4U C49U, 0.789; that for C4G C22A, 0.142.
The result for C4G C22U reads 0.0449; that for C4A U12A, 0.0712; that for C4A U12C, 0.095.
Regarding C4A U12G, the self-cleavage was 0.0536.
The result for C4G C58U reads 0.404.
Consider C4G C58G, for which the self-cleavage stood at 0.289.
With C4A U37G, the self-cleavage is 0.
C4A U65C: the self-cleavage was determined as 0.567.
For the variant C4A U65G, the self-cleavage worked out at 0.26.
Regarding C4U A8C, the self-cleavage was 0.443.
The result for C4A G31U reads 0; that for C4G G6A, 0; that for C4G G6U, 0.0237.
The result for C4A G34A reads 0.284; that for C4A G34C, 0.261; that for C4G G68A, 0.309.
As to C3U U27C, the self-cleavage is 0.262.
The result for C3U U27G reads 0.723; that for C4A A51C, 0.277; that for C4G A42G, 0.
The figure for C4G G74U is 0.111; for C4G G74C it is 0.0386.
The figure for C4A C58U is 0.424; for C4A C58G it is 0.259; for C3U U79G it is 0.489.
Consider C3U U79C, for which the self-cleavage was found to be 0.342.
The figure for C3U U12G is 0.429; for C3U U12A it is 0.0817; for C4A U9C it is 0.268.
The result for C4A G53U reads 0.174; that for C4A G53A, 0.201; that for C4A G53C, 0.344.
The result for C4G A83G reads 0.192; that for C4G A83U, 0.136; that for C4A A56C, 0.287.
As for C4A A56U, the self-cleavage worked out at 0.321.
For C4A A56G, the self-cleavage came to 0.217.
The result for C4A C7U reads 0.0519.
C4A C7G: the self-cleavage amounted to 0.104.
The result for C4A C86U reads 0.284; that for C4A C19A, 0.0386.
The result for C4A C75G reads 0.0396; that for C4A C14G, 0.175.
The result for C3U U20A reads 0.0308; that for C4U G10C, 0.63.
Consider C4U C58G, for which the self-cleavage is 0.615.
Consider C4A G25C, for which the self-cleavage stood at 0.181.
The result for C4G C44G reads 0.0449; that for C4G A87C, 0.373; that for C4G A87G, 0.0715.
The figure for C4U C61A is 0.978; for C4U C61U it is 0.717; for C4U G6U it is 0.219.
The figure for C4G C49G is 0.504.
In the case of C4G C49U, the self-cleavage is 0.612.
Consider C4U C18A, for which the self-cleavage stood at 0.
C4U C18G: the self-cleavage turned out to be 0.095.
In the case of C4G C18U, the self-cleavage stood at 0.0282.
The result for C4G G31U reads 0.0282.
The result for C4G G31A reads 0.0639.
C4G C86G: the self-cleavage is 0.249.
The result for C4G C86A reads 0.554; that for C4U C48A, 0.706; that for C4U C48G, 0.554.
As for C4G C15A, the self-cleavage was 0.142.
The figure for C4G C15U is 0.277; for C4G C36A it is 0.0241; for C4U C85U it is 0.665.
The figure for C4U C85G is 0.935; for C4U C26U it is 0.764; for C4G C66A it is 0.369.
The result for C4G C66U reads 0.445; that for C3U G82C, 0.0779; that for C4G C13U, 0.369.
Take C4G C13A: the self-cleavage was determined as 0.0277.
The result for C4G C13G reads 0; that for C4G A51C, 0.458; that for C4G A51U, 0.284.
For C4A C24A, the self-cleavage came to 0.0475.
Consider C4G G54C, for which the self-cleavage was found to be 0.213.
The result for C4G C85U reads 0.306; that for C4G C85A, 0.435.
As to C4A C21U, the self-cleavage was found to be 0.0346.
As for C4A C21A, the self-cleavage amounted to 0.
The figure for C4U C62G is 0.151.
